The text below walks through data of PMC4288183.

Data set [1] concerns the target T1, MNV RdRp (NS7) WT (Murine norovirus 1 strain CW1) (UniProt Q80J95).
T1 sequence: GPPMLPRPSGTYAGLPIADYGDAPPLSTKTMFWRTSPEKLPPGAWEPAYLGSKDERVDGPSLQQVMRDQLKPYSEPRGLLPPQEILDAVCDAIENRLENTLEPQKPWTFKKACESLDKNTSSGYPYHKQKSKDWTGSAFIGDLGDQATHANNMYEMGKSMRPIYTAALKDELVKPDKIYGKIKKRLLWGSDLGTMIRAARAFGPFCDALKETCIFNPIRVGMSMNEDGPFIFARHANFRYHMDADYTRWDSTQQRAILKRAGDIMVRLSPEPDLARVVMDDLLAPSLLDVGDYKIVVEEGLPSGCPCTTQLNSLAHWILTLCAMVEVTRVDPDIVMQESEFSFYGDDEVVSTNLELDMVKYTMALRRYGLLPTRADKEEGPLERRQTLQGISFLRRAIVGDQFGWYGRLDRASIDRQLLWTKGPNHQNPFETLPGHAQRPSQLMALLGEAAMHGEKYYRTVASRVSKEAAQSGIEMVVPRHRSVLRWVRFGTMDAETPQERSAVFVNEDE
The data set is described as follows: fluorescence polarization competition. The following applies: FP: 10 mM Tris-HCl pH 8.0, 30 mM NaCl, 1% glycerol, 0.5 mM 2-mercaptoethanol, 0.1 uM fMps, temperature not stated; synthesis competition: 20 mM Na glutamate pH …. A general note: Fluorescence polarisation rises when a labelled molecule tumbles more slowly, as on binding a larger partner.

In data set [2] the target is T1, MNV RdRp (NS7) WT (Murine norovirus 1 strain CW1). The data set is described as follows: fluorescence polarization. The following applies: FP: 10 mM Tris-HCl pH 8.0, 30 mM NaCl, 1% glycerol, 0.5 mM 2-mercaptoethanol, 0.1 uM fMps, temperature not stated; synthesis competition: 20 mM Na glutamate pH ….

In data set [1], “CUGCUGAGCGUUCCUGCGGGGUCUCAGCAU [Mhp (hairpin of Mps; also printed Mph)]” showed an IC50 of 16200 nM and a Ki of 6300 nM.

In data set [1], “GCGUCAUUCACAAAGACUGCUGAGCGUUCCUGCGGGGUCUCAGCAUCCAUU [Mps (MNV subgenomic proscript)]” registered an IC50 of 2360 nM and a Ki of 680 nM.

As for “GCGUCAUUCACAAAGACUGCUGAGCGUUCCUGCGGGGUCUCAGCAUCCAUU [fMps (6-FAM MNV subgenomic proscript)]”, the Kd in data set [2] amounted to 500 nM.

Broadly, the IC50 is the concentration at which inhibition is half-maximal. A higher IC50 goes with a need for much substance. What is called Ki is a dissociation constant, usually derived from enzyme kinetics or from competition with a known ligand. Read a low Ki as higher affinity. The Kd is the concentration at which binding is half-saturated. A high value points to lower affinity.
